Drawing on patent US20130064833A1, this text covers LEC proliferation, minimal effective concentration for one substance.

The target of the assay is hepatocyte growth factor receptor (HGFR) (UniProt P08581). Nature of the assay: cell-based or functional assay.
Sequence of UniProt P08581 (P08581 25-1390 limits assumed): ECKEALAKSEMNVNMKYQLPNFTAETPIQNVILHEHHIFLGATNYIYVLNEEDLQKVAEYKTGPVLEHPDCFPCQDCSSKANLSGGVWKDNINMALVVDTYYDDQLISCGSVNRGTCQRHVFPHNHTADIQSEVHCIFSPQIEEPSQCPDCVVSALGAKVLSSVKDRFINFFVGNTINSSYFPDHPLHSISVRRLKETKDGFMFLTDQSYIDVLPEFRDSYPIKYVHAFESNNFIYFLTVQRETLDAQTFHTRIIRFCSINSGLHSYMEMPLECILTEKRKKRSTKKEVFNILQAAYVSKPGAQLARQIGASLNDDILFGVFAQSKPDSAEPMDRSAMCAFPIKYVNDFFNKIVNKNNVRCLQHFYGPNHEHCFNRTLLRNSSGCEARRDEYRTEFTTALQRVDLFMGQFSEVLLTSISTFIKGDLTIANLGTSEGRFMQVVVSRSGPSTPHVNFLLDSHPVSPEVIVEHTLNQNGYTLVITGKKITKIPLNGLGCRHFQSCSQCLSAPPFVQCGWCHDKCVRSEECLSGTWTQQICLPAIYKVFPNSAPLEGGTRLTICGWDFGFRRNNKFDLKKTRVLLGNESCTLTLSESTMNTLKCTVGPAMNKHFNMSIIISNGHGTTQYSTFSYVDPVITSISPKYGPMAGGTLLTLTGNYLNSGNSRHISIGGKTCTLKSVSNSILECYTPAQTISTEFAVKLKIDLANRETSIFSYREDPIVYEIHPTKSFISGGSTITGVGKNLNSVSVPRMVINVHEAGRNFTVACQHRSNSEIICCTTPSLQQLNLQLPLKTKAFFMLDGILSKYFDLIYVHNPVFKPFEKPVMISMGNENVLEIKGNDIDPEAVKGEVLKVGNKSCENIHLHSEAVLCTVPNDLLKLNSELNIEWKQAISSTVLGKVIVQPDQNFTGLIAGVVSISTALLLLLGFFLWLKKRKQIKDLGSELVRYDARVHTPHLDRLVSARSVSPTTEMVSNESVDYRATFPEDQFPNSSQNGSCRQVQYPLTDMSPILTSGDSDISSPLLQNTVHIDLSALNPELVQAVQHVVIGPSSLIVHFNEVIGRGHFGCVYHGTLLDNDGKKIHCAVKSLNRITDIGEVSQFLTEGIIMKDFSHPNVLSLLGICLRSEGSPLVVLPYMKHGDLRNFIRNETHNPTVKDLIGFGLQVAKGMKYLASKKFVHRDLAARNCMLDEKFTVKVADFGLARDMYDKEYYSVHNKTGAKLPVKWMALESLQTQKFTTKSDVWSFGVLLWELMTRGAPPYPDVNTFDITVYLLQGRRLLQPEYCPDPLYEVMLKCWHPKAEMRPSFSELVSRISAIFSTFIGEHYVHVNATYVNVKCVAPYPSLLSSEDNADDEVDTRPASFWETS

With hepatocyte growth factor (HGF) (ligand), the LEC proliferation, minimal effective concentration was 1 ng/mL.
